Publication PMC4822050, “Hemi-methylated DNA opens a closed conformation of UHRF1 to facilitate its histone recognition” (Nature Communications, 2016)
Residue numbers refer to the chain shown, from its start. Names and notes keep the numbering of the source. Read-outs that look alike come from different tables or passages of the source. Each block holds one molecule with its values, some of them ahead of it.

Tests used:
Type in all cases: binding
H3K9me3 peptide (1–17) = test: ITC, H3K9me3 peptide (1-17) titrated into UHRF1 proteins
Method: (§1) For competition ITC experiments: the indicated proteins were pre-incubated with competitive peptide, protein or hm-DNA (at 1:2 molar ratio if not specified) for 10 min followed by ITC measurements as described above. Proteins, DNA and peptides were prepared within ITC buffer containing 10 mM HEPES, pH 8.0, 100 mM NaCl. The data were fitted by software Origin 7.0. All ITC results were summarized in Supplementary Table 2 and raw data were shown in Supplementary Fig. 9.

[1] = molecular target: T1, Spacer (residues 587–674) of UHRF1 (Homo sapiens, UniProt Q96T88); test: ITC, interaction of UHRF1 domains with the Spacer
T1 construct: Spacer (residues 587–674); GST (N, cleaved yes); made in house; host or cells: E. coli BL21 (DE3)
T1 sequence (Q96T88 587-674): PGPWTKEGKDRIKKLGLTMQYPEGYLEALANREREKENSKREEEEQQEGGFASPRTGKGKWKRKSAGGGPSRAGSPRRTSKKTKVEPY
Method: as §1

FAM-12bp-HM-DNA = test: Fluorescence polarization, 12-bp FAM-hm-DNA; settings: FP, 25 °C, 20 min; 20 mM HEPES pH 7.5, 175 mM NaCl, 8% glycerol, 1 mM DTT; triplicate; Fig. 5b and Supplementary Table 4
Method: A 6-carboxy-fluorescein (FAM)-labelled primer, 5′-CCATGCGCTGAC-3′, was annealed to a primer 5′-GTCAGXGCATGG-3′ (X=5-methyldeoxycytosine). The hemi-methylated double-strand DNA was used in both electrophoretic mobility-shift assay and FP assays. […] The samples were subjected to a 10% polyacrylamide gel electrophoresis and run in 0.5 × Tris-borate-EDTA buffer at 100 V for 1 h at 4 °C. The results were visualized on Tanon-5200 Chemiluminescent Imaging System (Tanon Science & Technology Co., Ltd).
FP measurements were performed at 25 °C on Synergy 4 Microplate Reader (BioTek). The 16-bp and 20-bp FAM-labelled hm-DNA (lower strand: 5′-GTGTCAGXGCATGGCC-3′ and 5′-CCGTGTCAGXGCATGGCCAT-3′, respectively. X=5-methyldeoxycytosine) were used in the FP experiment to test the effect of DNA length on the protein/DNA interaction. All experiments were performed in triplicate. The curves were fitted by GraphPad Prism 5. For salt concentration-dependent FP experiments, the reaction buffer contains 50 mM or 150 mM NaCl, respectively.

[2] = molecular target: T2, TTD (residues 134–285) of UHRF1 (Homo sapiens, UniProt Q96T88); test: ITC, TTD titrated into Spacer variants and other UHRF1 fragments; settings: TTD in syringe
T2 construct: TTD (residues 134–285); GST (N, cleaved yes); made in house; host or cells: E. coli BL21 (DE3)
T2 sequence (Q96T88 134-285): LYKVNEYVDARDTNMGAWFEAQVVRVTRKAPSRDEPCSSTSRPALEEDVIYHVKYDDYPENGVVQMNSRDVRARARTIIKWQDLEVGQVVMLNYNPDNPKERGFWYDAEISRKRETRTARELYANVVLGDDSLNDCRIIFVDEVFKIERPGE
Method: as §1

hm-DNA (12 bp) = test: ITC, hm-DNA titrated into UHRF1 domains; settings: 18 °C, 12-bp hm-DNA in syringe, named protein in cell, 10 mM HEPES pH 8.0, 100 mM NaCl
Method: as §1

[3] = ITC, 18 °C, named protein 0.05 mM in cell, H3K9me3 (1-17) 0.5 mM in syringe, 10 mM HEPES pH 8.0, 100 mM NaCl, read-out: KD

B1: TTD–PHD: human UHRF1 residues 134–366 (protein)
chain: LYKVNEYVDARDTNMGAWFEAQVVRVTRKAPSRDEPCSSTSRPALEEDVIYHVKYDDYPENGVVQMNSRDVRARARTIIKWQDLEVGQVVMLNYNPDNPKERGFWYDAEISRKRETRTARELYANVVLGDDSLNDCRIIFVDEVFKIERPGEGSPMVDNPMRRKSGPSCKHCKDDVNRLCRVCACHLCGGRQDPDKQLMCDECDMAFHIYCLDPPLSSVPSEDEWYCPECRND
modifications: left off: GST, end not stated, cleaved
fold higher binding affinity to H3K9me3 peptide than full-length UHRF1 (H3K9me3 peptide (1–17); ITC KD ratio): ~31 fold
Kd (H3K9me3 peptide (1–17); [3]): 0.15 µM
N ([1]; ITC stoichiometry, Spacer in syringe): 0.887±0.0379
Kd ([1]; ITC, 18 °C, Spacer in syringe, named protein in cell, 10 mM HEPES pH 8.0, 100 mM NaCl): 10.7 µM
ΔH ([1]; ITC, Spacer in syringe): -6.561 ± 0.4116 kcal/mol
ΔS ([1]; ITC, Spacer in syringe): 0.285 cal/mol/deg
interaction between the Spacer and the named protein in the presence of H3K9me3 ([1]; ITC, molar ratio of TTD-PHD or TTD: H3K9me3=1:2): No detectable interaction

B2: SRA-Spacer-661: UHRF1 residues 414–661 (protein, UniProt Q96T88 414-661, looked up, fragment)
chain: PSNHYGPIPGIPVGTMWRFRVQVSESGVHRPHVAGIHGRSNDGAYSLVLAGGYEDDVDHGNFFTYTGSGGRDLSGNKRTAEQSCDQKLTNTNRALALNCFAPINDQEGAEAKDWRSGKPVRVVRNVKGGKNSKYAPAEGNRYDGIYKVVKYWPEKGKSGFLVWRYLLRRDDDEPGPWTKEGKDRIKKLGLTMQYPEGYLEALANREREKENSKREEEEQQEGGFASPRTGKGKWKRKSAGGGPSRAGS
Kd (FAM-12bp-HM-DNA): 0.38 ± 0.06 µM

B4: R295D/R296D mutant of full-length UHRF1: full-length UHRF1 with Linker mutation R295D/R296D (protein)
chain: MWIQVRTMDGRQTHTVDSLSRLTKVEELRRKIQELFHVEPGLQRLFYRGKQMEDGHTLFDYEVRLNDTIQLLVRQSLVLPHSTKERDSELSDTDSGCCLGQSESDKSSTHGEAAAETDSRPADEDMWDETELGLYKVNEYVDARDTNMGAWFEAQVVRVTRKAPSRDEPCSSTSRPALEEDVIYHVKYDDYPENGVVQMNSRDVRARARTIIKWQDLEVGQVVMLNYNPDNPKERGFWYDAEISRKRETRTARELYANVVLGDDSLNDCRIIFVDEVFKIERPGEGSPMVDNPMDDKSGPSCKHCKDDVNRLCRVCACHLCGGRQDPDKQLMCDECDMAFHIYCLDPPLSSVPSEDEWYCPECRNDASEVVLAGERLRESKKKAKMASATSSSQRDWGKGMACVGRTKECTIVPSNHYGPIPGIPVGTMWRFRVQVSESGVHRPHVAGIHGRSNDGAYSLVLAGGYEDDVDHGNFFTYTGSGGRDLSGNKRTAEQSCDQKLTNTNRALALNCFAPINDQEGAEAKDWRSGKPVRVVRNVKGGKNSKYAPAEGNRYDGIYKVVKYWPEKGKSGFLVWRYLLRRDDDEPGPWTKEGKDRIKKLGLTMQYPEGYLEALANREREKENSKREEEEQQEGGFASPRTGKGKWKRKSAGGGPSRAGSPRRTSKKTKVEPYSLTAQQSSLIREDKSNAKLWNEVLASLKDRPASGSPFQLFLSKVEETFQCICCQELVFRPITTVCQHNVCKDCLDRSFRAQVFSCPACRYDLGRSYAMQVNQPLQTVLNQLFPGYGNGR
modifications: left off: GST, end not stated, cleaved
fold lower binding affinity to H3K9me3 than wild type UHRF1 (H3K9me3 peptide (1–17); ITC, Supplementary Fig. 4g): eight

B6: Spacer: C-terminal spacer region of human UHRF1 (residues 587–674) (protein)
chain: T1 sequence (Q96T88 587-674)
modifications: left off: GST, end not stated, cleaved
Kd (H3K9me3 peptide (1–17); competition ITC, molar ratio TTD–PHD/Spacer=1:2, read-out: KD of H3K9me3 for TTD–PHD in the presence of the Spacer): 1.63 ± 0.08 µM
N ([2]; ITC stoichiometry): 0.95±0.00786
ΔH ([2]; ITC): -1.13 E4±116.7 cal/mol
ΔS ([2]; ITC): -12.3 cal/mol/deg
KD (hm-DNA (12 bp)): no interaction

Further lines, results first:

KD (H3K9me3 peptide (1–17); ITC, 18 °C, named protein 0.05 mM in cell, H3K9me3 (1-17) 0.5 mM in syringe, 10 mM HEPES pH 8.0, 100 mM NaCl): undetectable
B3: UHRF1D334A: UHRF1 mutant D334A, which abolishes H3R2-binding affinity of the PHD (protein)
chain: B4 chain with D295R, D296R, D334A
modifications: left off: GST, end not stated, cleaved

Kd (H3K9me3 peptide (1–17); [3]): 8.69 µM
B5: UHRF1D334A&∆627-674: UHRF1 with mutation D334A and deletion of residues 627–674 (protein)
chain: MWIQVRTMDGRQTHTVDSLSRLTKVEELRRKIQELFHVEPGLQRLFYRGKQMEDGHTLFDYEVRLNDTIQLLVRQSLVLPHSTKERDSELSDTDSGCCLGQSESDKSSTHGEAAAETDSRPADEDMWDETELGLYKVNEYVDARDTNMGAWFEAQVVRVTRKAPSRDEPCSSTSRPALEEDVIYHVKYDDYPENGVVQMNSRDVRARARTIIKWQDLEVGQVVMLNYNPDNPKERGFWYDAEISRKRETRTARELYANVVLGDDSLNDCRIIFVDEVFKIERPGEGSPMVDNPMRRKSGPSCKHCKDDVNRLCRVCACHLCGGRQDPDKQLMCAECDMAFHIYCLDPPLSSVPSEDEWYCPECRNDASEVVLAGERLRESKKKAKMASATSSSQRDWGKGMACVGRTKECTIVPSNHYGPIPGIPVGTMWRFRVQVSESGVHRPHVAGIHGRSNDGAYSLVLAGGYEDDVDHGNFFTYTGSGGRDLSGNKRTAEQSCDQKLTNTNRALALNCFAPINDQEGAEAKDWRSGKPVRVVRNVKGGKNSKYAPAEGNRYDGIYKVVKYWPEKGKSGFLVWRYLLRRDDDEPGPWTKEGKDRIKKLGLTMQYPEGYLEALANREREKENSKSLTAQQSSLIREDKSNAKLWNEVLASLKDRPASGSPFQLFLSKVEETFQCICCQELVFRPITTVCQHNVCKDCLDRSFRAQVFSCPACRYDLGRSYAMQVNQPLQTVLNQLFPGYGNGR
modifications: left off: GST, end not stated, cleaved
